For orientation: stoichiometry N means a count of units in the complex or per binding partner.

Assay [1] addresses T1, human recombinant C-reactive protein (human), P02741.
T1 chain: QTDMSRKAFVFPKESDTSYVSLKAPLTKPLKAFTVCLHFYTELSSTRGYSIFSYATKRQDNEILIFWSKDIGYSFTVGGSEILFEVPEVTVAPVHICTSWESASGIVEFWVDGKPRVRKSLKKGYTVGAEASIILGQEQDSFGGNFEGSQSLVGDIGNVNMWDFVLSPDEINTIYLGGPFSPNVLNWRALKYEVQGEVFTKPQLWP
Description: native MS; direct infusion native MS with SID; 50 mM ammonium acetate, for charge reduction 20% (v/v) 50 mM TEAA added. The following applies: remark: other sources report otherwise.

Assay [2] addresses T1, human recombinant C-reactive protein …. Description: native MS; native capillary zone electrophoresis-MS (nCZE-MS) with surface-induced dissociation (SID); LPA-coated capillary, 20 kV; BGE 50 mM ammonium acetate pH around 6.8 (normal charge) or 40 mM AmAc with 10 mM TEAA (charge-reducing); 0.5 uM of each complex; precursors 15+/11+ SA and 23+/17+ CRP isolated. As to conditions: remark: other sources report otherwise.

B1: human recombinant C-reactive protein, P02741 19-224 (natural protein)
chain: QTDMSRKAFVFPKESDTSYVSLKAPLTKPLKAFTVCLHFYTELSSTRGYSIFSYATKRQDNEILIFWSKDIGYSFTVGGSEILFEVPEVTVAPVHICTSWESASGIVEFWVDGKPRVRKSLKKGYTVGAEASIILGQEQDSFGGNFEGSQSLVGDIGNVNMWDFVLSPDEINTIYLGGPFSPNVLNWRALKYEVQGEVFTKPQLWP
Consider B1, for which the stoichiometry N in assay [1] and in assay [2] was 5 throughout.

The values above are taken from paper PMC12004354.
